The results in this text go back to the supplement of paper PMC11246515.

This data set in a line: total protein half-life in vivo (active degradation + dilution); higher = more stable protein.
The mark [1] stands for this setting: E. coli NCM3722 delta-clpP delta-lon delta-hslV, growth: N-lim chemostat, doubling time 6 h.
[2] abbreviates: E. coli NCM3722 delta-clpP, growth: N-lim chemostat, doubling time 6 h.
Where [3] appears, read: E. coli NCM3722 delta-hslV, growth: N-lim chemostat, doubling time 6 h.
[4] abbreviates: E. coli NCM3722 delta-lon, growth: N-lim chemostat, doubling time 6 h.
Setting [5] is: E. coli NCM3722 delta-smpB, growth: N-lim chemostat, doubling time 6 h.
Setting [6] is: wild type E. coli NCM3722, growth: C-lim chemostat, doubling time 3 h.
Where [7] appears, read: wild type E. coli NCM3722, growth: C-lim chemostat, doubling time 6 h.
[8] abbreviates: wild type E. coli NCM3722, growth: C-lim chemostat, doubling time 12 h.
The mark [9] stands for this setting: wild type E. coli NCM3722, growth: N-lim chemostat, doubling time 6 h.
Setting [10] is: wild type E. coli NCM3722, growth: N-lim chemostat, doubling time 12 h.
Setting [11] is: wild type E. coli NCM3722, growth: P-lim chemostat, doubling time 6 h.
Where [12] appears, read: wild type E. coli NCM3722, growth: P-lim chemostat, doubling time 12 h.

± gives the standard deviation of the averaged measurements.

With “MTEQEKTSAVVEETREAVDTTSQPVATEKKSKNNTALILSAVAIAIALAAGIGLYGWGKQQAVNQTATSDALANQLTALQKAQESQKAELEGIIKQQAAQLKQANRQQETLAKQLDEVQQKVATISGSDAKTWLLAQADFLVKLAGRKLWSDQDVTTAAALLKSADASLADMNDPSLITVRRAITDDIASLSAVSQVDYDGIILKLNQLSNQVDNLRLADNDSDGSPMDSDGEELSSSISEWRINLQKSWQNFMDNFITIRRRDDTAVPLLAPNQDIYLRENIRSRLLVAAQAVPRHQEETYRQALENVSTWVRAYYDTDDATTKAFLDEVDQLSQQNISMDLPETLQSQAMLEKLMQTRVRNLLAQPAAGTTEAKPAPAPQADTPAAAPQGE”, the “total protein half-life in vivo” value runs as follows: under setting [1], 5.965 ± 0.022 h; under setting [2], 6.63 ± 1.1 h; under setting [3], 6.31 ± 0.23 h; under setting [4], 6.06 ± 0.28 h; under setting [5], 6.54 ± 0.59 h; under setting [6], 3.15 ± 0.072 h. Besides, the “total protein half-life in vivo” value runs as follows: under setting [7], 5.98 ± 0.23 h; under setting [8], 11.3 ± 1.5 h; under setting [9], 6.09 ± 0.16 h; under setting [10], 13.7 ± 0.83 h; under setting [11], 6.17 ± 0.24 h; under setting [12], 12.8 ± 1.5 h.

“MQDEYYMARALKLAQRGRFTTHPNPNVGCVIVKDGEIVGEGYHQRAGEPHAEVHALRMAGEKAKGATAYVTLEPCSHHGRTPPCCDALIAAGVARVVASMQDPNPQVAGRGLYRLQQAGIDVSHGLMMSEAEQLNKGFLKRMRTGFPYIQLKLGASLDGRTAMASGESQWITSPQARRDVQLLRAQSHAILTSSATVLADDPALTVRWSELDEQTQALYPQQNLRQPIRIVIDSQNRVTPVHRIVQQPGETWFARTQEDSREWPETVRTLLIPEHKGHLDLVVLMMQLGKQQINSIWVEAGPTLAGALLQAGLVDELIVYIAPKLLGSDARGLCTLPGLEKLADAPQFKFKEIRHVGPDVCLHLVGA”: the “total protein half-life in vivo” value came out at 5.45 ± 0.12 h under setting [1]; 4.76 ± 0.62 h under setting [2]; 5.07 ± 0.25 h under setting [3]; 5.1 ± 0.31 h under setting [4]; 4.57 ± 0.21 h under setting [5]; 2.9 ± 0.13 h under setting [6]. Besides, the “total protein half-life in vivo” value turned out to be 6.76 ± 0.081 h under setting [7]; 10.1 ± 0.38 h under setting [8]; 4.98 ± 0.35 h under setting [9]; 8.77 ± 0.11 h under setting [10]; 5.904 ± 0.027 h under setting [11]; 11.7 ± 0.15 h under setting [12].

With “MKFIIKLFPEITIKSQSVRLRFIKILTGNIRNVLKHYDETLAVVRHWDNIEVRAKDENQRLAIRDALTRIPGIHHILEVEDVPFTDMHDIFEKALVQYRDQLEGKTFCVRVKRRGKHDFSSIDVERYVGGGLNQHIESARVKLTNPDVTVHLEVEDDRLLLIKGRYEGIGGFPIGTQEDVLSLISGGFDSGVSSYMLMRRGCRVHYCFFNLGGAAHEIGVRQVAHYLWNRFGSSHRVRFVAINFEPVVGEILEKIDDGQMGVILKRMMVRAASKVAERYGVQALVTGEALGQVSSQTLTNLRLIDNVSDTLILRPLISYDKEHIINLARQIGTEDFARTMPEYCGVISKSPTVKAVKSKIEAEEEKFDFSILDKVVEEANNVDIREIAQQTEQEVVEVETVNGFGPNDVILDIRSIDEQEDKPLKVEGIDVVSLPFYKLSTKFGDLDQNKTWLLWCERGVMSRLQALYLREQGFNNVKVYRP”, the “total protein half-life in vivo” value under setting [1] is 4.16 ± 1 h; the “total protein half-life in vivo” value under setting [2] is 2.72 ± 0.25 h; the “total protein half-life in vivo” value under setting [3] was 2.86 ± 0.2 h; the “total protein half-life in vivo” value under setting [4] was 3.57 ± 0.082 h; the “total protein half-life in vivo” value under setting [5] stood at 2.827 ± 0.0041 h; the “total protein half-life in vivo” value under setting [6] amounted to 3 ± 0.2 h. The “total protein half-life in vivo” value came out at 4.62 ± 0.53 h under setting [7]; 7.48 ± 0.32 h under setting [8]; 2.952 ± 0.021 h under setting [9]; 3.99 ± 0.086 h under setting [10]; 5.66 ± 1.4 h under setting [11]; 8.76 ± 0.25 h under setting [12].

On to “MKVKVLSLLVPALLVAGAANAAEVYNKDGNKLDLYGKVDGLHYFSDNKDVDGDQTYMRLGFKGETQVTDQLTGYGQWEYQIQGNSAENENNSWTRVAFAGLKFQDVGSFDYGRNYGVVYDVTSWTDVLPEFGGDTYGSDNFMQQRGNGFATYRNTDFFGLVDGLNFAVQYQGKNGNPSGEGFTSGVTNNGRDALRQNGDGVGGSITYDYEGFGIGGAISSSKRTDAQNTAAYIGNGDRAETYTGGLKYDANNIYLAAQYTQTYNATRVGSLGWANKAQNFEAVAQYQFDFGLRPSLAYLQSKGKNLGRGYDDEDILKYVDVGATYYFNKNMSTYVDYKINLLDDNQFTRDAGINTDNIVALGLVYQF”, for which the “total protein half-life in vivo” value by setting is: under setting [1], 7.5928 ± 0.0042 h; under setting [2], 6.32 ± 1.1 h; under setting [3], 6.59 ± 0.66 h; under setting [4], 7.2 ± 0.57 h; under setting [5], 6.24 ± 0.51 h; under setting [6], 3.37 ± 0.1 h. Moreover, the “total protein half-life in vivo” value is 6.64 ± 0.99 h under setting [7]; 11.6 ± 2 h under setting [8]; 5.94 ± 0.54 h under setting [9]; 12.4 ± 1.4 h under setting [10]; 6.7 ± 0.53 h under setting [11]; 13.9 ± 2.6 h under setting [12].

In the case of “MKRLQAFKFQLRPGGQQECEMRRFAGACRFVFNRALARQNENHEAGNKYIPYGKMASWLVEWKNATETQWLKDSPSQPLQQSLKDLERAYKNFFRKRAAFPRFKKRGQNDAFRYPQGVKLDQENSRIFLPKLGWMRYRNSRQVTGVVKNVTVSQSCGKWYISIQTESEVSTPVHPSASMVGLDAGVAKLATLSDGTVFEPVNSFQKNQKKLARLQRQLSRKVKFSNNWQKQKRKIQRLHSCIANIRRDYLHKVTTAVSKNHAMIVIEDLKVSNMSKSAAGTVSQPGRNVRAKSGLNRSILDQGWYEMRRQLAYKQLWRGGQVLAVPPAYTSQRCAYCGHTAKENRLSQSKFRCQVCGYTANADVNGARNILAAGHAVLACGEMVQSGRPLKQEPTEMIQATA”, the “total protein half-life in vivo” value was 5.63 h under setting [1]; 3.54 h under setting [4]; 6.1 ± 0.35 h under setting [7]; 10.6 h under setting [8]; greater than 16 h under setting [12].

“MSLINTKIKPFKNQAFKNGEFIEITEKDTEGRWSVFFFYPADFTFVCPTELGDVADHYEELQKLGVDVYAVSTDTHFTHKAWHSSSETIAKIKYAMIGDPTGALTRNFDNMREDEGLADRATFVVDPQGIIQAIEVTAEGIGRDASDLLRKIKAAQYVASHPGEVCPAKWKEGEATLAPSLDLVGKI [P0AE08]”: the “total protein half-life in vivo” value turned out to be 2.82 ± 0.23 h under setting [1]; 2.22 ± 0.28 h under setting [2]; 1.91 ± 0.12 h under setting [3]; 2.26 ± 0.079 h under setting [4]; 2.119 ± 0.01 h under setting [5]; 2.89 ± 0.21 h under setting [6]. Further, the “total protein half-life in vivo” value reads like this: under setting [7], 5.05 ± 0.11 h; under setting [8], 7.67 ± 0.6 h; under setting [9], 2.03 ± 0.16 h; under setting [10], 2.6085 ± 0.0015 h; under setting [11], 5.49 ± 0.38 h; under setting [12], 9.52 ± 0.29 h.
